In publication PMC4063720:

Legend:
[1] = molecular target: Hfq (Pseudomonas aeruginosa PAO1) (UniProt Q9HUM0); assay: filter binding; details: EMSA: 10 mM Tris-HCl pH 8.0, 10 mM MgCl2, 60 mM NaCl, 10 mM NaH2PO4, 10 mM DTT, 25 ng tRNA in 10 ul, 37 C 30 min; 4% PAGE in Tris-borate; filter binding buffer …
[2] = molecular target: HfqY25D Y25D (Pseudomonas aeruginosa PAO1) (UniProt Q9HUM0); assay: EMSA; details: EMSA: 10 mM Tris-HCl pH 8.0, 10 mM MgCl2, 60 mM NaCl, 10 mM NaH2PO4, 10 mM DTT, 25 ng tRNA in 10 ul, 37 C 30 min; 4% PAGE in Tris-borate; filter binding buffer …
[3] = molecular target: Hfq (Pseudomonas aeruginosa PAO1) (UniProt Q9HUM0); assay: EMSA; details: EMSA: 10 mM Tris-HCl pH 8.0, 10 mM MgCl2, 60 mM NaCl, 10 mM NaH2PO4, 10 mM DTT, 25 ng tRNA in 10 ul, 37 C 30 min; 4% PAGE in Tris-borate; filter binding buffer …
[4] = molecular target: HfqK56A K56A (Pseudomonas aeruginosa PAO1) (UniProt Q9HUM0); assay: EMSA; details: EMSA: 10 mM Tris-HCl pH 8.0, 10 mM MgCl2, 60 mM NaCl, 10 mM NaH2PO4, 10 mM DTT, 25 ng tRNA in 10 ul, 37 C 30 min; 4% PAGE in Tris-borate; filter binding buffer …
[5] = molecular target: Hfq (Pseudomonas aeruginosa PAO1) (UniProt Q9HUM0); assay: competition; details: EMSA: 10 mM Tris-HCl pH 8.0, 10 mM MgCl2, 60 mM NaCl, 10 mM NaH2PO4, 10 mM DTT, 25 ng tRNA in 10 ul, 37 C 30 min; 4% PAGE in Tris-borate; filter binding buffer …
[6] = tested on: Hfq (Pseudomonas aeruginosa PAO1); assay: filter binding; details: Hfq-hexamer concentration; duplicate; EMSA: 10 mM Tris-HCl pH 8.0, 10 mM MgCl2, 60 mM NaCl, 10 mM NaH2PO4, 10 mM DTT, 25 ng tRNA in 10 ul, 37 C 30 min; 4% PAGE in Tris-borate; filter binding buffer …

Substance | Kd [1] [nM] | binding [2] | binding [3] | binding [4] | binding [5] | Kd [6] [nM]
GAUCAGGUCGUGCGCAUCAGCGUCGAUGUCGCGGGACCGAACCUAACGCAUACGUACAGAGCAAAUGGGCUCUCCCGGGGUUACCCGGGAGGGCCUUUUUUCGUCCCGAAAAAAUAACAACAAGAGGUGAUAUCCAUGCGUCACGGCGAUAUUUCCUGCAGAAAAAA [amiE -134-+20 RNA] | 67 | no binding | binds | binds |  | 
GCGUACAGGGAACACGCAACCCCGAAGGAUCGGGGAAGGGACGUCGCCAGGGAGGCGAUUCAUCAGGAUGAUGACGAGGGACUGAAGAGUGGGCGGGGUAAUACCCCGCCCCUUUUUUUUGCCUGCCGUUUUACUCGUCGCCCUGCAGUUU [RsmZ RNA] |  |  |  |  | no binding | 
GGCACAACAACAAUAACAAGCAACGACGAAGACAAUAAAAACAACACGUAACGACUCCAGCACAACAAAAACAAAAUCGCGGAGGCGCAGCUAACUGAUUCUUUUGGAGAGGAGUUGCUGUCGGGACCCGUCCCGCAGCCAGUCGGAAGAAG [CrcZ151 RNA] |  | binds more weakly | binds | binds | binds | 
amiE -134-+20 RNA |  |  |  |  |  | 67
